According to the RNAGym collection of RNA variant scans (doi:10.1093/molbev/msab373):

B1: Azoarcus group I ribozyme (parent)
chain: GUGCCUUGCGCCGGGAAACCACGCAAGGGAUGGUGUCAAAUUCGGCGAAACCUAAGCGCCCGCCCGGGCGUAUGGCAACGCCGAGCCAAGCUUCGGCGCCUGCGCCGAUGAAGGUGUAGAGACUAGACGGCACCCACCUAAGGCAAACGCUAUGGUGAAGGCAUAGUCCAGGGAGUGGCGAAAGUCACACAAACCGG

Variants of: B1
Test: reverse-splicing fitness (ratio to wild type); higher = more active; in vitro selection; Mg2+ level not given
How it was run: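 An in vitro group I ribozyme library with randomized positions was T7-transcribed and gel-purified. In triplicate, 10 pmol RNA in EPPS pH 7.5 was reacted with 50 pmoles of a 30-nt RNA substrate for 1 h at 37 °C across several added MgCl2 levels (1–48 mM), then stopped with EDTA. Products were reverse transcribed from a substrate-complementary primer, PCR-amplified and sequenced (HiSeq 4000). Fitness is a variant's read proportion after selection over that before, normalised to wild type.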

Point of comparison: A111U A145U C150A U176C, reverse-splicing fitness 0.228. Against it:
- A111U A145C C150A C169G — lower, 0.00935
- A111U A145C C150A C169U — lower, 0.0131
- A111U A145C C150A C169A — lower, 0.00817
- A111U A120U A145U U176G — lower, 0.0645
- A111U A120U A145U U176C — higher, 0.281
- A111U U176A — higher, 0.823
- A111U U176G — higher, 0.288
- A111U U176C — higher, 0.793
- A111U A145G C150U C169G U176A — lower, 0.0164
- A111U A145G C150U C169G U176G — lower, 0.00671
- A111U A145G C150U C169G U176C — lower, 0.0269
- A111U A145U C150G U176G — lower, 0.025
- A111U A145U C150G U176A — lower, 0.138
- A111U A145U C150G U176C — lower, 0.193
- A111U C150G C169A — lower, 0.00956
- A111U C150G C169G — lower, 0.00998
- A111U C150G C169U — lower, 0.0141
- A111U A145U C150A C169G U176G — lower, 0.0065
- A111U A145U C150A C169G U176C — lower, 0.0169
- A111U A145U C150A C169G U176A — lower, 0.0129
- A111U C150G C169A U176A — lower, 0.0102
- A111U C150G C169A U176C — lower, 0.0111
- A111U C150G C169A U176G — lower, 0.00689
- A111U A120U C150G C169U — lower, 0.00855
- A111U A120U C150G C169G — lower, 0.00802
- A111U A120U C150G C169A — lower, 0.00749
- A120C A145C C150A C169U — lower, 0.0518
- A120C A145C C150A C169A — lower, 0.00701
- A120C A145C C150A C169G — lower, 0.00626
- A111U A145U C150U C169U U176C — lower, 0.0268
- A111U A145U C150U C169U U176A — lower, 0.022
- A111U A145U C150U C169U U176G — lower, 0.00684
- A111U A145C C150G U176A — lower, 0.153
- A111U A145C C150G U176G — lower, 0.0277
- A111U A145C C150G U176C — lower, 0.218
- A111U A145G C150U — higher, 0.915
- A111U A145G C150A — higher, 0.516
- A111U A145G C150G — higher, 0.359
- A111U A120U C169A U176A — lower, 0.00255
- A111U A120U C169A U176C — lower, 0.00373
- A111U A120U C169A U176G — lower, 0.00214
- A111U C150U C169G — lower, 0.0372
- A111U C150U C169A — lower, 0.02
- A111U C150U C169U — lower, 0.0631
- A111U C150A C169G — lower, 0.0124
- A111U C150A C169U — lower, 0.0167
- A111U C150A C169A — lower, 0.0111
- A111U A145C C150A U176A — lower, 0.103
- A111U A145C C150A U176G — lower, 0.0517
- A111U A145C C150A U176C — lower, 0.127
- A111U A120U C150U C169U U176A — lower, 0.0088
- A111U A120U C150U C169U U176G — lower, 0.00287
- A111U A120U C150U C169U U176C — lower, 0.0116
- A111U A145C C150U C169A — lower, 0.0113
- A111U A145C C150U C169G — lower, 0.0177
- A111U A145C C150U C169U — lower, 0.0312
- A111U A145G C150A C169G U176G — lower, 0.00603
- A111U A145G C150A C169G U176C — lower, 0.0292
- A111U A145G C150A C169G U176A — lower, 0.0163
- A111U A145U C150G C169G U176C — lower, 0.00535
- A111U A145U C150G C169G U176A — lower, 0.00711
- A111U A145U C150G C169G U176G — lower, 0.00534
- A111U A120U C150A U176G — lower, 0.0103
- A111U A120U C150A U176C — lower, 0.0318
- A111U A120U C150A U176A — lower, 0.0294
- A111U A145U C150A U176G — lower, 0.0853
- A111U A145U C150A U176A — lower, 0.192
- A111U A120U C150U C169G U176A — lower, 0.00847
- A111U A120U C150U C169G U176C — lower, 0.00679
- A111U A120U C150U C169G U176G — lower, 0.00213
- A111U A145U C150U — higher, 0.88
- A111U A145U C150G — higher, 0.41
- A111U A145U C150A — higher, 0.379
- A111U A120U C150A C169G U176C — lower, 0.00445
- A111U A120U C150A C169G U176A — lower, 0.00698
- A111U A120U C150A C169G U176G — lower, 0.00254
- A111U A145G C150A U176G — lower, 0.0951
- A111U A145G C150A U176C — higher, 0.299
- A111U A145G C150A U176A — higher, 0.238
- A111U A145C C150U U176C — higher, 0.436
- A111U A145C C150U U176A — higher, 0.399
- A111U A145C C150U U176G — lower, 0.189
- A111U A120U C169G U176G — lower, 0.00197
- A111U A120U C169G U176A — lower, 0.00625
- A111U A120U C169G U176C — lower, 0.00937
- A111U C169A — lower, 0.0292
- A111U C169G — lower, 0.0649
- A111U C169U — lower, 0.103
- A111U A145C C169G U176G — lower, 0.00585
- A111U A145C C169G U176A — lower, 0.0286
- A111U A145C C169G U176C — lower, 0.0232
- A111U A120U U176A — higher, 0.239
- A111U A120U U176G — lower, 0.0683
- A111U A120U U176C — higher, 0.296
- A111U A145G C150G C169U U176A — lower, 0.0111
- A111U A145G C150G C169U U176C — lower, 0.0136
- A111U A145G C150G C169U U176G — lower, 0.0076
- A111U A145U C169G U176A — lower, 0.016
- A111U A145U C169G U176C — lower, 0.0214
- A111U A145U C169G U176G — lower, 0.00562
- A111U A145U C169A — lower, 0.0323
- A111U A145U C169G — lower, 0.0652
- A111U A145U C169U — lower, 0.109
- A111U A145C C169U U176C — lower, 0.0265
- A111U A145C C169U U176G — lower, 0.0061
- A111U A145C C169U U176A — lower, 0.0252
- A111U C169U U176G — lower, 0.00752
- A111U C169U U176C — lower, 0.0365
- A111U C169U U176A — lower, 0.0279
- A111U A120U C150A C169A U176A — lower, 0.00475
- A111U A120U C150A C169A U176C — lower, 0.00348
- A111U A120U C150A C169A U176G — lower, 0.00251
- A111U C150U C169G U176G — lower, 0.00719
- A111U C150U C169G U176C — lower, 0.0215
- A111U C150U C169G U176A — lower, 0.0177
- A120C A145C C150A C169U U176A — lower, 0.0342
- A120C A145C C150A C169U U176C — lower, 0.032
- A111U A145G U176C — higher, 0.721
- A111U A145G U176A — higher, 0.701
- A111U A145G U176G — higher, 0.267
- A111U A145C C150G — higher, 0.426
- A111U A145C C150A — higher, 0.23
- A111U A145C C150U — higher, 0.661
- A120C A145C C150A — lower, 0.128
- A111U A145U C169U U176C — lower, 0.0326
- A111U A145U C169U U176A — lower, 0.0258
- A111U A145U C169U U176G — lower, 0.00639
- A111U A145C C150G C169G — lower, 0.0108
- A111U A145C C150G C169A — lower, 0.00988
- A111U A145C C150G C169U — lower, 0.0175
- A111U C150A U176C — higher, 0.251
- A111U C150A U176G — lower, 0.0846
- A111U C150A U176A — lower, 0.207
- A111U A145C C150G C169U U176A — lower, 0.00903
- A111U A145C C150G C169U U176C — lower, 0.0128
- A111U A145C C150G C169U U176G — lower, 0.00557
- A111U A120U C150U U176A — lower, 0.125
- A111U A120U C150U U176C — lower, 0.171
- A111U A120U C150U U176G — lower, 0.027
- A111U A145C C169A U176G — lower, 0.00602
- A111U A145C C169A U176A — lower, 0.0105
- A111U A145C C169A U176C — lower, 0.00885
- A111U C150U — higher, 0.89
- A111U C150G — higher, 0.308
- A111U C150A — higher, 0.372
- A111U A145G C169G U176C — lower, 0.0358
- A111U A145G C169G U176A — lower, 0.0249
- A111U A145G C169G U176G — lower, 0.00535
- A111U C150G U176A — lower, 0.0805
- A111U C150G U176C — lower, 0.124
- A111U C150G U176G — lower, 0.0165
- A111U A145U U176A — higher, 0.747
- A111U A145U U176C — higher, 0.767
- A111U A145U U176G — higher, 0.364
- A111U A120U C150G C169A U176G — lower, 0.00232
- A111U A120U C150G C169A U176C — lower, 0.0037
- A111U A120U C150G C169A U176A — lower, 0.00451
- A111U C150A C169G U176A — lower, 0.0165
- A111U C150A C169G U176C — lower, 0.0236
- A111U C150A C169G U176G — lower, 0.00571
- A111U A145C C150A C169G U176A — lower, 0.0227
- A111U A145C C150A C169G U176G — lower, 0.00622
- A111U A145C C150A C169G U176C — lower, 0.0127
- A111U A120U C150A C169U U176C — lower, 0.0045
- A111U A120U C150A C169U U176G — lower, 0.00212
- A111U A120U C150A C169U U176A — lower, 0.00638
